Source: US20050208046A1

Target: FLAG-TWEAKR (human)

Substance: M2 anti-FLAG monoclonal antibody cross-linked with goat anti-mouse IgG (tool reagent)
- BrdU incorporation of transfected HUVEC: 6 fold
